± gives the standard error. For some of these results: This sample holds only a part of the variants without activity.
B1: glmS ribozyme (parent)
chain: AUAAAAGCGCCAGAACUACAGAAAUGUAGUUGACGAGGAGGAGGUUUAUCGAAUUUUCGGCGGAUGCCUCCAAA

Experiments:
Conditions in all cases: with glucosamine-6-phosphate
glucosamine-6-phosphate [1] = variants of: B1; test: kcat; higher = faster cleavage; RNA array
Procedure, shortened: (§1)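 Over ~14 h at 37 °C, tiles were imaged as glucosamine-6-phosphate (40 μM to 10 mM) in HEPES/KCl/Mg(OAc)2 buffer flowed across sequenced MiSeq chips. The chips carried barcoded ribozyme variants transcribed in situ by E. coli RNA polymerase and tracked with a hybridised Cy3 probe. After normalisation to baseline and to non-cleaving reference variants, one- or two-exponential decay fits of per-tile medians gave kobs. kcat and KM followed from weighted Michaelis–Menten fits across concentrations.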

glucosamine-6-phosphate [2] = variants of: B1; test: self-cleavage kobs at 40 uM GlcN6P; higher = faster cleavage; RNA array
Procedure, shortened: as §1

glucosamine-6-phosphate [3] = variants of: B1; test: self-cleavage kobs at 2500 uM GlcN6P; higher = faster cleavage; RNA array
Procedure, shortened: as §1

glucosamine-6-phosphate [4] = variants of: B1; test: self-cleavage kobs at 10000 uM GlcN6P; higher = faster cleavage; RNA array
Procedure, shortened: as §1

glucosamine-6-phosphate [5] = variants of: B1; test: self-cleavage kobs at 640 uM GlcN6P; higher = faster cleavage; RNA array
Procedure, shortened: as §1

glucosamine-6-phosphate [6] = variants of: B1; test: KM; higher = weaker cofactor use; RNA array
Procedure, shortened: as §1

glucosamine-6-phosphate [7] = variants of: B1; test: self-cleavage kobs at 160 uM GlcN6P; higher = faster cleavage; RNA array
Procedure, shortened: as §1

Variant	kcat (glucosamine-6-phosphate [1])	self-cleavage kobs at 40 uM GlcN6P (glucosamine-6-phosphate [2])	self-cleavage kobs at 2500 uM GlcN6P (glucosamine-6-phosphate [3])	self-cleavage kobs at 10000 uM GlcN6P (glucosamine-6-phosphate [4])	self-cleavage kobs at 640 uM GlcN6P (glucosamine-6-phosphate [5])	KM (glucosamine-6-phosphate [6])	self-cleavage kobs at 160 uM GlcN6P (glucosamine-6-phosphate [7])
AUAAAAGCGCCAGAACUACAGAAAUGUAUUUGACGAGGAGGAGGUUUAUCGAAUUUUCCGCGGAUGCCUCCAAA	< 1e-05 s⁻¹	< 1e-05 s⁻¹	< 1e-05 s⁻¹	< 1e-05 s⁻¹			
AUAAAAGCGCCAGAACUACAGAAAUGUAGUUGACUAGGAGGAGGUUUAUCGAAGUUUCGGCGGAUGCCUACAAA	1.53e-05 ± 4.8e-06 s⁻¹		< 1e-05 s⁻¹				
AUAAAAGCGCCAGAAGUACAGAAAUGUAGUUGACGAGGAGGAGGUUCAUCGAAUUUUCGGCGGAUGCCUCCAAA	0.00027 ± 0.00013 s⁻¹		0.000192 ± 5.1e-05 s⁻¹		0.000231 ± 7.9e-05 s⁻¹		
AUAAACGCGCCAGAACUACAGAAAUGUAGUUGACGAGGAGGAGGUUUAUCGAAUUUUCGGCGGAUGCCUCUAAA	9.59e-05 ± 6.3e-06 s⁻¹		7.07e-05 ± 9.3e-06 s⁻¹	8.35e-05 ± 9.7e-06 s⁻¹	2.89e-05 ± 1.2e-05 s⁻¹	1150 ± 280 µM	
AUAAAAGCGCCAGAACUACAGAAAUGUAGUUGACGAGGAGGAGGUUUAUCGAAUUUUCGGCGGAUGCCGCGAAA	5.4e-05 ± 2.4e-05 s⁻¹		3.23e-05 ± 1.5e-05 s⁻¹		9.05e-05 ± 1.6e-05 s⁻¹		
AUAAAAGCGCCAGAACUACAGAAAUGUAGUUGACGAGGAGGAGGUUUAGCGAGUUUUCGGCGGAUGCCUCCAAA	0.00124 ± 0.00011 s⁻¹	3.67e-05 ± 1.3e-05 s⁻¹	0.000714 ± 0.00011 s⁻¹	0.00116 ± 0.00015 s⁻¹	0.000361 ± 6.3e-05 s⁻¹	1440 ± 230 µM	0.000136 ± 2.5e-05 s⁻¹
AUAAAAGCGCCAGAACUACAGAAAUGUAGUUGACGAGGAGUAGGUUGAUCGAAUUUUCGGCGGAUGCCUCCAAA	0.00121 ± 0.0005 s⁻¹	4.35e-05 ± 1.2e-05 s⁻¹	0.000364 ± 8.6e-05 s⁻¹	0.00093 ± 0.00013 s⁻¹	0.000221 ± 4.5e-05 s⁻¹		3.94e-05 ± 1.2e-05 s⁻¹
AUAAAAGCGCCAGAACUACAGAAAUGUAGUUGAGGAGUAGGAGGUUUAUCGAAUUUUCGGCGGAUGCCUCCAAA	< 1e-05 s⁻¹						< 1e-05 s⁻¹
AUAAAAGCGCCAGAACUACAGAAAUGUAGCUGACGAGGAGGAGGUUUAUCGAACUUUCGGCGGAUGCCUCCAAA	0.000253 ± 0.00011 s⁻¹		9.4e-05 ± 2.7e-05 s⁻¹	0.000271 ± 4.1e-05 s⁻¹	7.76e-05 ± 1.2e-05 s⁻¹		4.17e-05 ± 1.8e-05 s⁻¹

Source: the supplement of paper PMC7125110
